# Experimental data: US9878046B2, “Adverse side-effects associated with administration of an anti-hyaluronan agent and methods for ameliorating or preventing the side-effects” (Halozyme, Inc., priority 2010, dated 2018)
# Values joined by “and” are separate entries in the source; they are usually repeats but may differ in a detail not shown here. Equal entries are not always repeated. “Also recorded” adds a separate entry of the source.
# Columns and labels:
# [1] = Clinical study (Phase 1-101), musculoskeletal adverse events of PEGPH20
# Description: The median age of the patients was age 61 (range 56-86) with tumor types including histiocytoma, colorectal, pancreatic, bladder, carcinoid and ovarian. In all cases, the patients entered the program under pain medication related to their presenting condition but not for study drug-related pain.
# [2] = tested on: soluble plasma hyaluronan; assay: Soluble plasma hyaluronan ELISA in PC3 tumor-bearing mice; assay type: in vivo; conditions: PEGPH20 4.5 mg/kg alone or + dexamethasone (high or low dose)
# Description: Plasma samples were additionally used to measure soluble plasma hyaluronan in the control group and each of the treatment groups (R&D Systems Catalog DY3614; ELISA assay). In the vehicle control group, the plasma hyaluronan levels ranged from 800,000 to 900,000 ng/mL.
# pericellular hyaluronan = assay: Hyaluronan staining of PC3 tumor sections; assay type: in vivo, human (xenograft in athymic male nude mice); conditions: Day 14, dexamethasone low or high dose, PEGPH20 4.5 mg/kg, or both
# Description: (§1) Tumor tissues from the two satellite mice from all 6 treatment groups in Example 9A.1 above, were harvested by tissue biopsy on Day 14 and stained for the presence of hyaluronan. Tumor biopsies were fixed in 10% NBF for 48 hours, embedded in paraffin, and sectioned. Samples were probed for hyaluronan using a biotinylated HA-binding protein (HABP), then probed with FITC-labeled streptavidin for detection. The cell nuclei were counterstained with DAPI (4′,6-diamidino-2-phenylindole) reagent. Micrographs were then captured using a Zeiss Microscope (Thornwood, N.Y.) coupled with the Spot imaging program (Diagnostic Instruments, Inc).
# (§2) Hyaluronan expression in the sections was evaluated by the level of green fluorescent intensity in the sections.
# HA catabolites = HA catabolites in dogs; assay type: in vivo, beagle dog; conditions: after PEGPH20 administration, with or without dexamethasone
# Description: HA catabolites also were measured as described in Example 6.
# [3] = tested on: hyaluronan present in the circulation; assay: Plasma HA and catabolites (disaccharide assay) in patients; assay type: in vivo, human
# Description: This Example describes a method for the determination of the HA-disaccharide content in plasma. The method employs the hydrolysis of HA with Chondroitinase ABC to release the HA-disaccharides, derivatize them with 2-amino acridone (AMAC) and analyze them on a reverse-phase HPLC coupled with fluorescence detection. Quantitation of the HA-disaccharides is accomplished by comparison with HA-disaccharide standards.
# Next, the sample was hydrolyzed. The sample (e.g. plasma) was prepared by taking approximately 100 μg of protein in a polypropylene tube and adjusting the volume to 340 μl with water. A matrix blank also was prepared by taking dilution buffer (1.59 g HEPES, 5.07 g NaCl, 1800 mL water, pH 7.0) equal to the volume of the sample and adjusting the volume to 340 μl. Hydrolysis of the samples and matrix blank were effected by adding 60 μl of TFA to the sample tube and matrix blank tube and the contents were mix and incubated at 100° C. for 4 hours. The vials were allowed to cool to room temperature. The vials were evaporated to dryness using a speed vac. Then, 300 μl of water was added to each tube and vortexed to resuspend the samples. […]
# The enzymatic activity of PEGPH20 was measured by monitoring concentrations of hyaluronan present in the circulation.
# [4] = Tolerability / musculoskeletal response to PEGPH20 in beagle dogs; assay type: in vivo, beagle dog
# [5] = Plasma pharmacokinetics of PEGPH20 (hyaluronidase activity) in patients
# Description: Plasma samples were stored frozen, and concentrations of PEGPH20 were determined by measuring hyaluronidase activity using a modified turbidimetric assay as described in Example 4. The USP turbidimetirc method used for the determination of hyaluronidase activity awas based on the formation of an insoluble precipitate that occurs when HA binds with acidified serum. PEGPH20 concentrations were expressed as units of hyaluronidase activity (U/mL) as interpolated from a calibration curve. Activity was reported to the nearest 1 U/mL, and the analytical methods were applicable for measuring plasma hyaluronidase concentrations as low as 0.3125 U/mL.
# tissue HA (hyaluronan) = assay: Histochemical HA staining of skeletal muscle and skin biopsies; assay type: in vivo, beagle dog
# Description: Twenty-four hours post-dose (Day 60), skeletal muscle biopsies were taken from each of the three treated dogs and also from an untreated control beagle dog. The medial semitendinosis/medial membranosus muscle(s) were targeted for biopsies. The area of the biopsy was shaved using electric clippers and scrubbed using either Chlorhexidine or Povidone-Iodine solutions. Bupivacaine or Lidocaine (2-3 mg/kg) was injected subcutaneously (SC) in the area of the biopsy for local analgesia. The muscle biopsy was collected using a 2-mm-diameter biopsy needle. A gauze sponge was applied with slight pressure to stop any bleeding. Metacam (meloxicam) 0.2 mg/kg was injected SC to control pain. Biopsy samples were placed in Eppendorf tubes or equivalent with approximately 200 μL 10% neutral-buffered formalin (NBF).
# Biopsied tissue samples were stained for tissue HA using a highly specific histochemical staining method. […] The cell nuclei were counterstained with DAPI (4′,6-diamidino-2-phenylindole) reagent. Micrographs were then captured using a Zeiss Microscope (Thornwood, N.Y.) coupled with the Spot imaging program (Diagnostic Instruments, Inc).
# The medial semitendinosis/medial membranosus muscle(s) were targeted for biopsies. The area of the biopsy was shaved using electric clippers and scrubbed using either Chlorhexidine or Povidone-Iodine solutions. […]
# hyaluronan = assay: Hyaluronan staining of BxPC3 tumor sections; assay type: in vivo, human (xenograft in athymic female nude mice); conditions: Day 18, dexamethasone low or high dose, PEGPH20 4.5 mg/kg, or both
# Description: as §1, with “9B.1” for “9A.1”, “18” for “14”
# as §2
# [6] = single 50 μg/kg dose, individual patients 1 and 2
molecule,measurement,setting,value
PEGPH20 (protein) LNFRAPPVIPNVPFLWAWNAPSEFCLGKFDEPLDMSLFSFIGSPRINATGQGVTIFYVDRLGYYPYIDSITGVTVNGGIPQKISLQDHLDKAKKDITFYMPVDNLGMAVIDWEEWRPTWARNWKPKDVYKNRSIELVQQQNVQLSLTEATEKAKQEFEKAGKDFLVETIKLGKLLRPNHLWGYYLFPDCYNHHYKKPGYNGSCFNVEIKRNDDLSWLWNESTALYPSIYLNTQQSPVAATLYVRNRVREAIRVSKIPDAKSPLPVFAYTRIVFTDQVLKFLSQDELVYTFGETVALGASGIVIWGTLSIMRSMKSCLLLDNYMETILNPYIINVTLAAKMCSQVLCQEQGVCIRKNWNSSDYLHLNPDNFAIQLEKGGKFTVRGKPTLEDLEQFSEKFYCSCYSTLSCKEKADVKDTDAVDVCIADGVCIDAFLKPPMETEEPQIFY,dose-limiting toxicity,[1]; 0.5 μg/kg IV every 21 days,No dose-limiting toxicities
same,"musculoskeletal side effects, severity","[1]; 0.5 μg/kg IV every 21 days, three patients",intermittent Grade 1 or transient Grade 2
same,dose-limiting toxicity,[1]; 0.5 μg/kg IV twice weekly,met dose-limiting toxicity
same,severity of muscle/joint pain,"[1]; 0.5 μg/kg IV twice weekly, after 2 doses",Grade 3
same,musculoskeletal pain leading to discontinuation (summary),[1]; 0.5 μg/kg in a 21 day cycle,Grade 3
same,dose-limiting toxicity,"[1]; 0.75 μg/kg IV every 21 days, Grade 3 event after first cycle",not considered a dose-limiting toxicity
same,"musculoskeletal side effects, severity","[1]; 0.75 μg/kg IV every 21 days, cohort and individual patients",intermittent Grade 1 or transient Grade 2; also recorded: Grade 1; also recorded: Grade 3; also recorded: Grade 2
same,dose-limiting toxicity,[1]; 1.0 μg/kg IV every 21 days,no dose-limiting toxicities
same,"musculoskeletal symptoms, severity","[1]; 1.0 μg/kg IV every 21 days, one of three patients",Grade 1
same,dose-limiting toxicity,"[1]; 1.5 μg/kg IV every 21 days, one patient",no dose-limiting toxicities
same,musculoskeletal pain leading to discontinuation (summary),"[1]; 50.0 μg/kg dose twice weekly, individual patients",Grade 4; also recorded: Grade 3
same,duration of pain,[1]; single IV dose 0.05 mg/kg,more than 9 days
same,onset of stiffness and muscle and joint pain after dosing,[1]; single IV dose 0.05 mg/kg,6 to 10 h
same,severity of muscle/joint pain,"[1]; single IV dose 0.05 mg/kg, individual patients",Grade 3
same,plasma hyaluronan,[2],no detectable (below limit of quantitation) hyaluronan
same,pericellular hyaluronan staining of tumor sections,pericellular hyaluronan,almost completely absent
same,HA catabolites,HA catabolites,appearance of HA catabolites
same,HA catabolite levels over a week,"[3]; 0.5 μg/kg to 1.5 μg/kg, 12 patients",increased in a dose-dependent manner
same,plasma concentrations of hyaluronan,[3]; single 50 μg/kg dose,increased significantly
same,histopathologic changes of knee joint or skeletal muscle,"IV twice weekly, 4 weeks",no associated histopathologic changes
same,clinical signs,monkeys administered PEGPH20,"hypoactivity, lethargy, disorientation, hunched posture and a decrease in limb joint angle"
same,reaction immediately post-dose after a break in dosing,"[4]; 3040 Units/kg IV on Day 17, 26 or 33",systemic anaphylactoid-like reaction
same,musculoskeletal effects after re-dose,"[4]; 3040 Units/kg IV on Day 59, antibody-positive dogs",No musculoskeletal effects were observed
same,"musculoskeletal responses, repeat daily dosing","[4]; Day 7 through Day 9, 3800 to 15200 Units/kg",No musculoskeletal responses were observed
same,"musculoskeletal responses, repeat daily dosing","[4]; Day 12, 60800 Units/kg (1.6 mg/kg), dog 288 IV",reduced mobility 2 hours after the 60800 Units/kg (1.6 mg/kg) dose with complete recovery within 10 hours post-dose
same,"musculoskeletal responses, repeat daily dosing","[4]; Days 4 through 6, 1520 to 3040 Units/kg, IV or SC","reduced mobility (reduced ability to walk or stand), overall decreased activity, and muscle stiffness in the neck, back and extremities upon palpation; also recorded: the severity of the responses decreased from Day 4 to Day 6"
same,resolution of musculoskeletal responses,"[4]; single dose 3040 U/kg on Day 1, three dogs",≤ 4 days
same,time of musculoskeletal response post-dose,"[4]; single dose 3040 U/kg, IV or SC, three dogs",≤ 23 h
same,musculoskeletal observations,"[4]; single dose 3040 Units/kg (0.08 mg/kg), IV or SC","reduced mobility (reduced ability to walk or stand) and tighness of muscles of the neck, back and extremities upon palpation; also recorded: reduced mobility (reduced ability to walk or stand), overall decreased activity, and muscle stiffness in the neck, back and extremities upon palpation"
same,musculoskeletal observations on the following day,[4]; single dose of either 0.08 mg/kg or 0.3 mg/kg,"reduced walking ability, difficulty standing, decreased activity and tightness of the muscles of the neck, back and extremities"
same,time course of plasma concentrations,[5]; 0.5 μg/kg to 1.5 μg/kg,concentrations fell below the limit of quantification (BQL) during the first day
same,plasma concentrations after dosing,"[5]; 0.5 μg/kg to 1.5 μg/kg, twelve patients",≤ 1.5 U/mL
same,CL,[5]; [6],2.44 mL/h/kg and 3.29 mL/h/kg
same,"V1 (mL/kg), volume of the central compartment",[5]; [6],57.96 mL/kg and 55.93 mL/kg
same,"t1/2α (hr), distribution half-life",[5]; [6],4.77 h and 2.47 h
same,plasma enzyme at 72 hours after administration,[5]; single IV dose 50 μg/kg,< 2 U/mL
same,plasma enzyme initially following administration,[5]; single IV dose 50 μg/kg,approximately 30 U/mL
same,terminal half-life,[5]; single IV dose 50 μg/kg,approximately 2 days
same,plasma half life,"[5]; single IV dose 50 μg/kg, two patients",28 to 48 h
same,hyaluronan staining of skeletal muscle,"tissue HA (hyaluronan); 24 h after Day 59 dose, antibody-positive dogs",did not remove extracellular hyaluronan in skeletal muscle samples
same,"hyaluronan staining, post-treatment skeletal muscle and skin","tissue HA (hyaluronan); 24 h after first IV dose, PEGPH20 0.3 mg/kg alone, or 0.3 / 1.0 mg/kg + dexamethasone 4 mg BID",virtually no hyaluronan staining
same,hyaluronan staining of tumor sections,hyaluronan,almost completely absent
